Measurements as given in the supplement of paper PMC9170038.

System: MS2 coat protein
Experiment: apparent KD of MS2 coat protein; designed switch direction (-1 OFF switch, 1 ON switch): -1; higher = weaker reporter binding
In short: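 Three titration conditions were used: no input, 200 uM small-molecule ligand, and an oligonucleotide input. In each, SNAP-549-labelled MS2 coat protein was raised from 0.7 or 1.5 nM, doubling, to 3 µM over designed RNA switches transcribed on Illumina chips by stalled E. coli RNA polymerase. Curve fits of normalised cluster fluorescence gave values whose per-design median over clusters is the apparent KD.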

[1] = input ligand: microRNA oligo, concentration not stated
[2] = Eterna round: R95, input ligand: FMN 200 uM
[3] = Eterna round: R95, input ligand: microRNA oligo, concentration not stated
[4] = Eterna round: R95, input ligand: none

Row | Sequence | apparent KD of MS2 coat protein (input ligand: FMN 200 uM) [nM] | apparent KD of MS2 coat protein [1] [nM] | apparent KD of MS2 coat protein (input ligand: none) [nM] | apparent KD of MS2 coat protein [2] [nM] | apparent KD of MS2 coat protein [3] [nM] | apparent KD of MS2 coat protein [4] [nM]
1 | CUCGUGCAGCAAAGCUGUACGAGUACAUGAGGAUCACCCAUGUAGGAUAUGGUACGCAAAGCGUGCCAGAAGGACGUGAGUUAG [Mat - Exclusion NG 3 - Mod of JL - D95] (Eterna round: R96, puzzle: Exclusion NG 3) | 171 | 37.6 | 59 |  |  | 
2 | CUCGUGCAGCAAAGCUGUACGAGUACAUGAGGAUCACCCAUGUAGGAUAUGGUACGCUUUGCGUGCUAGAAGGACGUGUGUAUG [Mat - Exclusion NG 3 - Mod of JL - D90] (Eterna round: R96, puzzle: Exclusion NG 3) | 75.4 | 26.9 | 39.6 |  |  | 
3 | CUCUUGUCAGGAUAUCAACGCCGCCCACACAGGCGGCGAAAUGAGAAGGGACAUGAGGAUCACCCAUGUUAAAA [Tiaonbi] (puzzle: Exclusion 4) |  |  |  | 24.3 | 86.1 | 168
4 | CUCUUGUCAGGAUAUCAACGCCGCCCACAUGGGCAGCGAAAUGAGAAGGGACAUGAGGAUCACCCAUGUUAAAA [Retema] (puzzle: Exclusion 4) |  |  |  | 30.4 | 161 | 218
5 | CUCUUGUCAGGAUAUUAUGGACGAAGGCAGGGCCGCGUCAGUGAGAAGGGACAUGAGGAUCACCCAUGUAAAAU [Riintesoa] (puzzle: Exclusion 4) |  |  |  |  | 73.9 | 
6 | CUGAACCCGGUAGGAUAUAUUGUGGGCAAGCGUGGAACGACAUGAGGAUCACCCAUGUAAUUUAGGUAGAAGGGCCGAGAGAUU [Excl-NG2-LRO12] (Eterna round: R96, puzzle: Exclusion NG 2) | 32.5 | 41.5 | 41.5 |  |  | 
7 | CUGAGAUCAGGAUAUACAUGAGGAUCACCCAUGUAAAGUAGCUUGCGUACAGGCAGAUGUAGAAGGGAUUUCGG [Mod of JL 5 - Jieux - Exclusion 3] (Eterna round: R97, puzzle: Exclusion 3) | 29.7 |  | 26.5 |  |  | 
8 | CUGAGCAGACGAAGAUCCAACAUGAGGAUCACCCAUGUCUCAAAAGCUUUUUGCUUGUCUUAUCCUUCCCUGCUCUC [Isbies] (puzzle: Sensor v3, turn-off variant 1) |  |  |  | 14.3 | 207 | 12.9
9 | CUGAGCAGACGGAGAUCCAACAUGAGGAUCACCCAUGUCUCAAAAGCUUUUUGCUCGUCUUAUUCUCCUCUGUUCUC [Ainre] (puzzle: Sensor v3, turn-off variant 1) |  |  |  | 14.3 | 33.3 | 12.5
10 | CUGAGCUGAGGAUAUACAUGAGGAUCACCCAUGUUUUGUAGCUAGUGAAGAAGUAGAUGUAGAAGGCAGUUCGG [Mod of JL 25 - Jieux - Exclusion 3] (Eterna round: R97, puzzle: Exclusion 3) | 167 |  | 72.8 |  |  | 
11 | CUGAUGUUAGGAUAUCAGGCGCCCGCCACUGGCAAGGCGCAUGAGAAGGGACAUGAGGAUCACCCAUGUAGUAA [Maquraan] (puzzle: Exclusion 4) |  |  |  |  | 21.5 | 
12 | CUGCGUCGUGUUAGGAUAUCCAGCGGUGCGCGCCAGGAGAAGGAACAUGAGGAUCACCCAUGUAAACCGAUGGC [Aratte] (puzzle: Brourd's mod of Exclusion 4) |  |  |  |  | 11 | 
13 | CUGCUCCGUGUAGGAUAUCGCCGCACCACCCGGCGAGAAGGACAUGAGGAUCACCCAUGUAUGUUAUUAUCACGUGUGGCGCGA [Design 41] (Eterna round: R96, puzzle: Exclusion NG 1) | 16.4 | 13.9 | 17.1 |  |  | 
14 | CUGCUGGAGCGUUGCUUUGGUCGUACAUGAGGAUCACCCAUGUAGGAUAUGGUAAAAUUUGCUUGCUAGAAGGAUAGAGUGGUC [salish99_ExNG3_r04_613] (Eterna round: R96, puzzle: Exclusion NG 3) | 117 | 63.5 | 64.6 |  |  | 
